T1: VEGFR-3-Fc (UniProt P35916 25-328)
T1 construct: domain: first three Ig domains; conditioned supernatant of 293T cells; also called VEGFR-3-Fc fusion protein; not shown: Fc fragment of the pIg vector
T1 sequence (looked up): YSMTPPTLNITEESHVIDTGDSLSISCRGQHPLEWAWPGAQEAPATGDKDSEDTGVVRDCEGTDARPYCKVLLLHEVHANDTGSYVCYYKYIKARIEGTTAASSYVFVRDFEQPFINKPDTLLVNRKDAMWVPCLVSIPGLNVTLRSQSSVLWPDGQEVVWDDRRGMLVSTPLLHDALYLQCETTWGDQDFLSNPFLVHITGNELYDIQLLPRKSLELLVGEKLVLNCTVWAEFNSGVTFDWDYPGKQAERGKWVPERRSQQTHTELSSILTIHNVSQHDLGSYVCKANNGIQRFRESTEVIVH

B1: 74-10 (ligand)
chain: GQNHHEVVKSIDNEWRKTQCMPREVCIDVGKEFGVATNTFFKPSCVPLMRCGGCCNDEGLECMNTSTSYLSKTLFEITVPLSQGPKPVTISFLQHNKCECRPKKD
B2: 74-12 (ligand)
chain: B1 chain with D57S, E61Q
B3: 22-16 (ligand)
chain: AHYNTEILKSIDNEWRKTQCMPREVCIDVGKEFGVATNTFFKPPCVSVYRCGGCCNSEGLQCMNTSTSYLSKTLFEITVPLSQGPKPVTISFANHTSCRCMSKLDLVFEQKLISEEDLNSAVDHHHHHH
B4: 71-11 (ligand)
chain: GQNHHEVVKSIDNEWRKTQCMPREVCIDVGKEYPDEIEYIFKPSCVPLMRCGGCCNSEGLQCVPTEESNITMQIMRITVPLSQGPKPVTISFLQHNKCECRPKKD
B5: 71-13 (ligand)
chain: B4 chain with S57D, Q61E, L93A, Q94N, N96T, K97S, E99R, R101M, P102S, K104L
B6: 31-11 (ligand)
chain: B4 chain with R23I, V25T, C26L, I27V, V29I, G30F, K31Q
B7: 21-11 (ligand)
chain: B4 chain with G1A, Q2H, N3Y, H4N, H5T, V7I, V8L
B8: 73-15 (ligand)
chain: GQNHHEVVKSIDNEWRKTQCMPREVCIDVGKEYPDEIEYIFKPPCVSVYRCGGCCNSEGLQCVPTEESNITMQIMRITVPLSQGPKPVTISFANHTSCRCMSKLD
B9: 23-11 (ligand)
chain: AHYNTEILKSIDNEWRKTQCMPREVCIDVGKEYPDEIEYIFKPPCVSVYRCGGCCNSEGLQCVPTEESNITMQIMRITVPLSQGPKPVTISFLQHNKCECRPKKD
B10: 33-11 (ligand)
chain: GQNHHEVVKSIDNEWRKTQCMPIETLVDIFQEYPDEIEYIFKPPCVSVYRCGGCCNSEGLQCVPTEESNITMQIMRITVPLSQGPKPVTISFLQHNKCECRPKKD
B11: 74-11 (ligand)
chain: B4 chain with Y33F, P34G, D35V, E36A, I37T, E38N, Y39T, I40F
B12: 71-15 (ligand)
chain: B8 chain with P44S, S47P, V48L, Y49M
B13: 31-3 (ligand)
chain: B10 chain with P44S, S47P, V48L, Y49M, S57D, Q61E
B14: 82-14 (ligand)
chain: AHYNTEILKFMDVYQRSYCHPIETLVDIFQEFGVATNTFFKPPCVSVYRCGGCCNDEGLECMNTSTSYLSKTLFEITVPLSQGPKPVTISFANHTSCRCMSKLD
B15: 82-5 (ligand)
chain: AHYNTEILKFMDVYQRSYCHPIETLVDIFQEFGVATNTFFKPPCVSVYRCGGCCNDEGLECVPTEESNITMQIMRIKPHQGQHIGEMSFANHTSCRCMSKLD
B16: 82-9 (ligand)
chain: AHYNTEILKFMDVYQRSYCHPIETLVDIFQEFGVATNTFFKPPCVSVYRCGGCCNDEGLECVPTEESNITMQIMRITVPLSQGPKPVTISFLQHNKCECRPKKDL
notes: clone entry
B17: 82-13 (ligand)
chain: B16 chain with L92A, Q93N, N95T, K96S, E98R, R100M, P101S, K103L
notes: clone entry
B18: 14-9 (ligand)
chain: GQNHHEVVKFMDVYQRSYCHPIETLVDIFQEFGVATNTFFKPSCVPLMRCGGCCNDEGLECVPTEESNITMQIMRITVPLSQGPKPVTISFLQHNKCECRPKKDL
notes: clone entry
B19: 84-9 (ligand)
chain: B16 chain with P43S, S46P, V47L, Y48M
notes: clone entry
B20: 82-11 (ligand)
chain: B16 chain with D56S, E60Q
notes: clone entry
B21: 84-11 (ligand)
chain: B16 chain with P43S, S46P, V47L, Y48M, D56S, E60Q
notes: clone entry
B22: 82-15 (ligand)
chain: AHYNTEILKFMDVYQRSYCHPIETLVDIFQEFGVATNTFFKPPCVSVYRCGGCCNSEGLQCVPTEESNITMQIMRITVPLSQGPKPVTISFANHTSCRCMSKLD
B23: 12-5 (ligand)
chain: GQNHHEVVKFMDVYQRSYCHPIETLVDIFQEFGVATNTFFKPPCVSVYRCGGCCNDEGLECVPTEESNITMQIMRIKPHQGQHIGEMSFANHTSCRCMSKLDLVF
B24: 82-7 (ligand)
chain: B23 chain with G1A, Q2H, N3Y, H4N, H5T, V7I, V8L, D56S, E60Q
notes: clone entry
B25: 12-1 (ligand)
chain: B23 chain with A90L, N91Q, T93N, S94K, R96E, M98R, S99P, L101K
B26: 74-8 (ligand)
chain: GQNHHEVVKSIDNEWRKTQCMPREVCIDVGKEFGVATNTFFKPSCVPLMRCGGCCNSEGLQCMNTSTSYLSKTLFEIKPHQGQHIGEMSFANHTSCRCMSKLD

Results on 26 molecules are retold here after US20080058263A1 (published 2008).

Changes are numbered by the printed parent chain.

For the first assay, the target named is T2, VEGFR-1-Fc (UniProt P17948 27-338).
T2 construct: domain: first three Ig domains; expressed in Drosophila S2 cells, purified on Protein A sepharose; also called VEGFR-1-Fc fusion protein; not shown: Fc fragment from the Signal-pIgPlus vector
T2 sequence (P17948 27-338): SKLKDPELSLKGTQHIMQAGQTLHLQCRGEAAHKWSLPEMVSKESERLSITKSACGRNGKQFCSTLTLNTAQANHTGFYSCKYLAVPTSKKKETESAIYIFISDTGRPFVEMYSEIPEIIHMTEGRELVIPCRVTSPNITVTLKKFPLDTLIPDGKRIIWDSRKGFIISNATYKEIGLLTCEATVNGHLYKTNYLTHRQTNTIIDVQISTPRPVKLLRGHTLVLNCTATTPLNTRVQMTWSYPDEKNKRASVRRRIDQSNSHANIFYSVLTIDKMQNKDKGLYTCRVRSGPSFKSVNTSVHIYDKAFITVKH
The assay can be described thus: receptor-Fc IP. The gist of the method:
(§1)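 Binding of ligand from sample supernatant measured by pentahistidine-antibody immunoprecipitation. IP mix: PBS with 1.5% BSA, 0.06% Tween 20, 3 μg/ml heparin and 400 ng/ml fusion protein, added 1:2 to sample supernatant.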
In the case of B1, the binding result was “no binding”.

For the molecule B2, the binding result is reported as “no binding”.

As to B3, the binding result was “no binding”.

With B4, the binding result is “no binding”.

Regarding B5, the binding result is reported as “no binding”.

Take B6: the binding result was “no binding”.

On to B7, for which the binding result is recorded as “no binding”.

For B8, the binding result was “no binding”.

Consider B9, for which the binding result is listed as “no binding”.

Regarding B10, the binding result is “no binding”.

Regarding B11, the binding result is on record as “no binding”.

As to B12, the binding result is on record as “no binding”.

As for B13, the binding result is “no binding”.

B14: the binding result is listed as “no binding”.

As for B15, the binding result is listed as “binds”.

In the case of B16, the binding result was “binds”.

As for B17, the binding result is recorded as “binds”.

With B18, the binding result is “binds”.

Take B19: the binding result is “binds”.

For the molecule B20, the binding result is listed as “binds”.

As for B21, the binding result is “binds”.

For B22, the binding result is on record as “no binding”.

Consider B23, for which the binding result is “binds”.

As to B24, the binding result is “binds”.

Consider B25, for which the binding result is “binds”.

Take B26: the binding result is listed as “no binding”.

The next assay deals with T3, VEGFR-2-Fc (UniProt P35968 20-322).
T3 construct: domain: first 3 Ig domains; conditioned supernatant of 293T cells; also called VEGFR-2-Fc fusion protein; not shown: Fc fragment of the pIg vector
T3 sequence (P35968 20-322): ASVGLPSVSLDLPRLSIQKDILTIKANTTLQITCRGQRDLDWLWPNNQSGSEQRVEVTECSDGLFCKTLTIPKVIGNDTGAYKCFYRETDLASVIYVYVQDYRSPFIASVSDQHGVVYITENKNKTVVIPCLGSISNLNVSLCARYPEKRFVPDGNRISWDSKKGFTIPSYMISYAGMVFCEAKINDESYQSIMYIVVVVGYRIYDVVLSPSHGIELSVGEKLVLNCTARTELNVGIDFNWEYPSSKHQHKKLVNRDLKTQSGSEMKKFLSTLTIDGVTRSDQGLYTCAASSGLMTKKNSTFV
Kind of assay: receptor-Fc IP. The gist of the method:
as §1
For B1, the binding result is reported as “binds”.

In the case of B2, the binding result is recorded as “binds”.

For the molecule B3, the binding result is on record as “binds”.

Consider B4, for which the binding result is “no binding”.

B5: the binding result is listed as “no binding”.

Turning to B6, the binding result was “no binding”.

For the molecule B7, the binding result was “no binding”.

Regarding B8, the binding result is on record as “binds”.

Consider B9, for which the binding result is “no binding”.

As to B10, the binding result is listed as “no binding”.

On to B11, for which the binding result is given as “no binding”.

Turning to B12, the binding result is “no binding”.

As for B13, the binding result is “no binding”.

For B14, the binding result was “no binding”.

B15: the binding result is on record as “no binding”.

As to B16, the binding result is on record as “binds”.

Regarding B17, the binding result is “no binding”.

With B18, the binding result is recorded as “binds”.

Regarding B19, the binding result was “binds”.

In the case of B20, the binding result is on record as “binds”.

As for B21, the binding result is reported as “binds”.

With B22, the binding result is “binds”.

For the molecule B23, the binding result is recorded as “no binding”.

In the case of B24, the binding result is listed as “binds”.

B25: the binding result was “binds”.

As for B26, the binding result is reported as “binds”.

The target in a further assay is T1, VEGFR-3-Fc. The assay can be described thus: receptor-Fc IP. The gist of the method:
as §1
Regarding B1, the binding result was “no binding”.

Turning to B2, the binding result is reported as “no binding”.

B3: the binding result is recorded as “binds”.

B4: the binding result is “no binding”.

Regarding B5, the binding result is “no binding”.

B6: the binding result is “no binding”.

B7: the binding result is on record as “no binding”.

Consider B8, for which the binding result was “no binding”.

B9: the binding result is “no binding”.

For the molecule B10, the binding result is on record as “no binding”.

Take B11: the binding result is recorded as “no binding”.

With B12, the binding result is listed as “no binding”.

For the molecule B13, the binding result is “no binding”.

B14: the binding result is on record as “binds”.

With B15, the binding result is given as “no binding”.

Turning to B16, the binding result is “binds”.

On to B17, for which the binding result is “binds”.

As to B18, the binding result is recorded as “binds”.

Turning to B19, the binding result is on record as “binds”.

On to B20, for which the binding result is given as “binds”.

Turning to B21, the binding result is listed as “binds”.

For B22, the binding result is on record as “binds”.

For the molecule B23, the binding result was “no binding”.

In the case of B24, the binding result is listed as “binds”.

Take B25: the binding result is recorded as “binds”.

For the molecule B26, the binding result is given as “no binding”.
